From patent publication US20180273587A1 (AILERON THERAPEUTICS, published 2018) come the findings set out here.

One may read the Ki as a dissociation constant, usually derived from enzyme kinetics or from competition with a known ligand. Lower therefore signals tighter binding.

Positions of bridges follow the written chain, without caps; N, C: chain ends. Non-standard residues stand in square brackets, D forms with d. R8 = C=CCCCCCC[C@@](C)(N)C(=O)O; S5 = C=CCCC[C@](C)(N)C(=O)O

Holding throughout (assay): Ki table, method not stated
The target in one test is T1, MCL-1 (UniProt Q07820 172-327, limits assumed).
T1 construct: also called Myeloid cell leukemia 1

Another test deals with BCL-XL (UniProt Q07817 1-209).
In a further test the target is BCL-2 (UniProt P10415 1-217, limits assumed).
BCL-2, sequence (P10415 1-217 limits assumed): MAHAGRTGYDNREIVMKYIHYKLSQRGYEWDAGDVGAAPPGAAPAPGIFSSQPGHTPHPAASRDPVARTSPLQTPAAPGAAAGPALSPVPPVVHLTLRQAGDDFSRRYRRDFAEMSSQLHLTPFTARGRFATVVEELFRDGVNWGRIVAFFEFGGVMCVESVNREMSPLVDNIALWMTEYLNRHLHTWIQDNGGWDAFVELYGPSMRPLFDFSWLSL

T1 sequence (Q07820 172-327 limits assumed): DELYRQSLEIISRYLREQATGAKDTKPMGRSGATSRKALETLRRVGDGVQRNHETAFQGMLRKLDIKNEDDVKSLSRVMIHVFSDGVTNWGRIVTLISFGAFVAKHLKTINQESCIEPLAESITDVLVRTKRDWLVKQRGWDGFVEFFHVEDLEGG
BCL-XL, sequence (Q07817 1-209): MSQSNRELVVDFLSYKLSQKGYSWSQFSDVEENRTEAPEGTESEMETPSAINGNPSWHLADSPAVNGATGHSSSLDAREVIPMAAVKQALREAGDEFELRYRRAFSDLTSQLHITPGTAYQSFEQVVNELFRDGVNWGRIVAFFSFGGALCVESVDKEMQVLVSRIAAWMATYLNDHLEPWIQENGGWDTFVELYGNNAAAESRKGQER

B1: SEQ ID NO: 1643 (peptide)
peptide: Ac-IWIAQALR[R8]IGDEFA[S5]YYA-NH2
modifications: staple 9-16
SMILES: CC[C@H](C)[C@H](NC(C)=O)C(=O)N[C@@H](Cc1c[nH]c2ccccc12)C(=O)N[C@H](C(=O)N[C@@H](C)C(=O)N[C@@H](CCC(N)=O)C(=O)N[C@@H](C)C(=O)N[C@@H](CC(C)C)C(=O)N[C@@H](CCCNC(=N)N)C(=O)N[C@]1(C)CCCCCCC=CCCC[C@@](C)(C(=O)N[C@@H](Cc2ccc(O)cc2)C(=O)N[C@@H](Cc2ccc(O)cc2)C(=O)N[C@@H](C)C(N)=O)NC(=O)[C@H](C)NC(=O)[C@H](Cc2ccccc2)NC(=O)[C@H](CCC(=O)O)NC(=O)[C@H](CC(=O)O)NC(=O)CNC(=O)[C@H]([C@@H](C)CC)NC1=O)[C@@H](C)CC
For the molecule B1, the Ki stood at 7 nM in the test with MCL-1, 15.4 nM with BCL-XL and 21.9 nM with BCL-2.

B2: SEQ ID NO: 1651 (peptide)
peptide: Ac-IWIAAALR[R8]IGDEFN[S5]YYA-NH2
modifications: staple 9-16
SMILES: CC[C@H](C)[C@H](NC(C)=O)C(=O)N[C@@H](Cc1c[nH]c2ccccc12)C(=O)N[C@H](C(=O)N[C@@H](C)C(=O)N[C@@H](C)C(=O)N[C@@H](C)C(=O)N[C@@H](CC(C)C)C(=O)N[C@@H](CCCNC(=N)N)C(=O)N[C@]1(C)CCCCCCC=CCCC[C@@](C)(C(=O)N[C@@H](Cc2ccc(O)cc2)C(=O)N[C@@H](Cc2ccc(O)cc2)C(=O)N[C@@H](C)C(N)=O)NC(=O)[C@H](CC(N)=O)NC(=O)[C@H](Cc2ccccc2)NC(=O)[C@H](CCC(=O)O)NC(=O)[C@H](CC(=O)O)NC(=O)CNC(=O)[C@H]([C@@H](C)CC)NC1=O)[C@@H](C)CC
As for B2, the Ki turned out to be 1 nM in the test with MCL-1, 1 nM with BCL-XL and 6 nM with BCL-2.

B3: SEQ ID NO: 1654 (peptide)
peptide: Ac-IWIAQALR[R8]IGDAFA[S5]YYA-NH2
modifications: staple 9-16
SMILES: CC[C@H](C)[C@H](NC(C)=O)C(=O)N[C@@H](Cc1c[nH]c2ccccc12)C(=O)N[C@H](C(=O)N[C@@H](C)C(=O)N[C@@H](CCC(N)=O)C(=O)N[C@@H](C)C(=O)N[C@@H](CC(C)C)C(=O)N[C@@H](CCCNC(=N)N)C(=O)N[C@]1(C)CCCCCCC=CCCC[C@@](C)(C(=O)N[C@@H](Cc2ccc(O)cc2)C(=O)N[C@@H](Cc2ccc(O)cc2)C(=O)N[C@@H](C)C(N)=O)NC(=O)[C@H](C)NC(=O)[C@H](Cc2ccccc2)NC(=O)[C@H](C)NC(=O)[C@H](CC(=O)O)NC(=O)CNC(=O)[C@H]([C@@H](C)CC)NC1=O)[C@@H](C)CC
For B3, the figures for the Ki in the test with MCL-1, with BCL-XL and with BCL-2 were 7.4 nM, 55.7 nM and 115 nM, respectively.

B4: SEQ ID NO: 1661 (peptide)
peptide: Ac-IWIAQALR[R8]IGDAAN[S5]YYA-NH2
modifications: staple 9-16
SMILES: CC[C@H](C)[C@H](NC(C)=O)C(=O)N[C@@H](Cc1c[nH]c2ccccc12)C(=O)N[C@H](C(=O)N[C@@H](C)C(=O)N[C@@H](CCC(N)=O)C(=O)N[C@@H](C)C(=O)N[C@@H](CC(C)C)C(=O)N[C@@H](CCCNC(=N)N)C(=O)N[C@]1(C)CCCCCCC=CCCC[C@@](C)(C(=O)N[C@@H](Cc2ccc(O)cc2)C(=O)N[C@@H](Cc2ccc(O)cc2)C(=O)N[C@@H](C)C(N)=O)NC(=O)[C@H](CC(N)=O)NC(=O)[C@H](C)NC(=O)[C@H](C)NC(=O)[C@H](CC(=O)O)NC(=O)CNC(=O)[C@H]([C@@H](C)CC)NC1=O)[C@@H](C)CC
For the molecule B4, the figures for the Ki with MCL-1, with BCL-XL and in the test with BCL-2 were 7.5 nM, 402 nM and 140 nM, respectively.

B5: SEQ ID NO: 1648 (peptide)
peptide: Ac-IAIAQALR[R8]IGDAFN[S5]YYA-NH2
modifications: staple 9-16
SMILES: CC[C@H](C)[C@H](NC(C)=O)C(=O)N[C@@H](C)C(=O)N[C@H](C(=O)N[C@@H](C)C(=O)N[C@@H](CCC(N)=O)C(=O)N[C@@H](C)C(=O)N[C@@H](CC(C)C)C(=O)N[C@@H](CCCNC(=N)N)C(=O)N[C@]1(C)CCCCCCC=CCCC[C@@](C)(C(=O)N[C@@H](Cc2ccc(O)cc2)C(=O)N[C@@H](Cc2ccc(O)cc2)C(=O)N[C@@H](C)C(N)=O)NC(=O)[C@H](CC(N)=O)NC(=O)[C@H](Cc2ccccc2)NC(=O)[C@H](C)NC(=O)[C@H](CC(=O)O)NC(=O)CNC(=O)[C@H]([C@@H](C)CC)NC1=O)[C@@H](C)CC
For the molecule B5, the results for the Ki in the test with MCL-1, in the test with BCL-XL and with BCL-2 were 19.7 nM, 22.3 nM and 37.7 nM, respectively.

B6: SEQ ID NO: 1652 (peptide)
peptide: Ac-IWIAAALR[R8]IGDQFN[S5]YYA-NH2
modifications: staple 9-16
SMILES: CC[C@H](C)[C@H](NC(C)=O)C(=O)N[C@@H](Cc1c[nH]c2ccccc12)C(=O)N[C@H](C(=O)N[C@@H](C)C(=O)N[C@@H](C)C(=O)N[C@@H](C)C(=O)N[C@@H](CC(C)C)C(=O)N[C@@H](CCCNC(=N)N)C(=O)N[C@]1(C)CCCCCCC=CCCC[C@@](C)(C(=O)N[C@@H](Cc2ccc(O)cc2)C(=O)N[C@@H](Cc2ccc(O)cc2)C(=O)N[C@@H](C)C(N)=O)NC(=O)[C@H](CC(N)=O)NC(=O)[C@H](Cc2ccccc2)NC(=O)[C@H](CCC(N)=O)NC(=O)[C@H](CC(=O)O)NC(=O)CNC(=O)[C@H]([C@@H](C)CC)NC1=O)[C@@H](C)CC
Consider B6, for which the Ki with MCL-1 turned out to be 6 nM; in the test with BCL-XL, 4 nM; in the test with BCL-2 it was 22 nM.

B7: SEQ ID NO: 1659 (peptide)
peptide: Ac-IWIAQALQ[R8]IGDAFN[S5]YYA-NH2
modifications: staple 9-16
SMILES: CC[C@H](C)[C@H](NC(C)=O)C(=O)N[C@@H](Cc1c[nH]c2ccccc12)C(=O)N[C@H](C(=O)N[C@@H](C)C(=O)N[C@@H](CCC(N)=O)C(=O)N[C@@H](C)C(=O)N[C@@H](CC(C)C)C(=O)N[C@@H](CCC(N)=O)C(=O)N[C@]1(C)CCCCCCC=CCCC[C@@](C)(C(=O)N[C@@H](Cc2ccc(O)cc2)C(=O)N[C@@H](Cc2ccc(O)cc2)C(=O)N[C@@H](C)C(N)=O)NC(=O)[C@H](CC(N)=O)NC(=O)[C@H](Cc2ccccc2)NC(=O)[C@H](C)NC(=O)[C@H](CC(=O)O)NC(=O)CNC(=O)[C@H]([C@@H](C)CC)NC1=O)[C@@H](C)CC
As for B7, the Ki turned out to be 76.2 nM in the test with MCL-1, 325 nM with BCL-XL and 365 nM with BCL-2.

B8: SEQ ID NO: 1660 (peptide)
peptide: Ac-IWIAQALQ[R8]IGDQFN[S5]YYA-NH2
modifications: staple 9-16
SMILES: CC[C@H](C)[C@H](NC(C)=O)C(=O)N[C@@H](Cc1c[nH]c2ccccc12)C(=O)N[C@H](C(=O)N[C@@H](C)C(=O)N[C@@H](CCC(N)=O)C(=O)N[C@@H](C)C(=O)N[C@@H](CC(C)C)C(=O)N[C@@H](CCC(N)=O)C(=O)N[C@]1(C)CCCCCCC=CCCC[C@@](C)(C(=O)N[C@@H](Cc2ccc(O)cc2)C(=O)N[C@@H](Cc2ccc(O)cc2)C(=O)N[C@@H](C)C(N)=O)NC(=O)[C@H](CC(N)=O)NC(=O)[C@H](Cc2ccccc2)NC(=O)[C@H](CCC(N)=O)NC(=O)[C@H](CC(=O)O)NC(=O)CNC(=O)[C@H]([C@@H](C)CC)NC1=O)[C@@H](C)CC
Regarding B8, the Ki with MCL-1 stood at 14.8 nM; with BCL-XL it was 6.3 nM; with BCL-2, 27.5 nM.

B9: SEQ ID NO: 1653 (peptide)
peptide: Ac-IWIAAALR[R8]IGDAFN[S5]YYA-NH2
modifications: staple 9-16
SMILES: CC[C@H](C)[C@H](NC(C)=O)C(=O)N[C@@H](Cc1c[nH]c2ccccc12)C(=O)N[C@H](C(=O)N[C@@H](C)C(=O)N[C@@H](C)C(=O)N[C@@H](C)C(=O)N[C@@H](CC(C)C)C(=O)N[C@@H](CCCNC(=N)N)C(=O)N[C@]1(C)CCCCCCC=CCCC[C@@](C)(C(=O)N[C@@H](Cc2ccc(O)cc2)C(=O)N[C@@H](Cc2ccc(O)cc2)C(=O)N[C@@H](C)C(N)=O)NC(=O)[C@H](CC(N)=O)NC(=O)[C@H](Cc2ccccc2)NC(=O)[C@H](C)NC(=O)[C@H](CC(=O)O)NC(=O)CNC(=O)[C@H]([C@@H](C)CC)NC1=O)[C@@H](C)CC
In the case of B9, the Ki with MCL-1 came to 6.7 nM; in the test with BCL-XL, 25.6 nM; in the test with BCL-2, 65.4 nM.

B10: SEQ ID NO: 1650 (peptide)
peptide: Ac-IWIAQALR[R8]IGDQFN[S5]YYA-NH2
modifications: staple 9-16
SMILES: CC[C@H](C)[C@H](NC(C)=O)C(=O)N[C@@H](Cc1c[nH]c2ccccc12)C(=O)N[C@H](C(=O)N[C@@H](C)C(=O)N[C@@H](CCC(N)=O)C(=O)N[C@@H](C)C(=O)N[C@@H](CC(C)C)C(=O)N[C@@H](CCCNC(=N)N)C(=O)N[C@]1(C)CCCCCCC=CCCC[C@@](C)(C(=O)N[C@@H](Cc2ccc(O)cc2)C(=O)N[C@@H](Cc2ccc(O)cc2)C(=O)N[C@@H](C)C(N)=O)NC(=O)[C@H](CC(N)=O)NC(=O)[C@H](Cc2ccccc2)NC(=O)[C@H](CCC(N)=O)NC(=O)[C@H](CC(=O)O)NC(=O)CNC(=O)[C@H]([C@@H](C)CC)NC1=O)[C@@H](C)CC
Take B10: the Ki in the test with MCL-1 amounted to 5.2 nM; with BCL-XL, 12 nM; with BCL-2 it was 67 nM.

B11: SEQ ID NO: 1649 (peptide)
peptide: Ac-IWIAQALR[R8]IGDEFN[S5]YYA-NH2
modifications: staple 9-16
SMILES: CC[C@H](C)[C@H](NC(C)=O)C(=O)N[C@@H](Cc1c[nH]c2ccccc12)C(=O)N[C@H](C(=O)N[C@@H](C)C(=O)N[C@@H](CCC(N)=O)C(=O)N[C@@H](C)C(=O)N[C@@H](CC(C)C)C(=O)N[C@@H](CCCNC(=N)N)C(=O)N[C@]1(C)CCCCCCC=CCCC[C@@](C)(C(=O)N[C@@H](Cc2ccc(O)cc2)C(=O)N[C@@H](Cc2ccc(O)cc2)C(=O)N[C@@H](C)C(N)=O)NC(=O)[C@H](CC(N)=O)NC(=O)[C@H](Cc2ccccc2)NC(=O)[C@H](CCC(=O)O)NC(=O)[C@H](CC(=O)O)NC(=O)CNC(=O)[C@H]([C@@H](C)CC)NC1=O)[C@@H](C)CC
B11: the Ki was found to be 1.8 nM with MCL-1, 1.4 nM in the test with BCL-XL and 3.2 nM with BCL-2.
